Laboratory results as given in patent publication US20190167771, “CONTROL ANGIOGENESIS BY REGULATING PHOSPHORYLATION OF SERYL-tRNA SYNTHETASE (SerRS)” (The Scripps Research Institute, published 2019).

Molecular target: SerRS (seryl-tRNA synthetase) wild type (Homo sapiens, UniProt P49591 SEQ:1-514)
Experiment: EMSA; 20 mM Tris pH 8.0, 60 mM KCl, 5 mM MgCl2, poly(dG-dC), room temperature
Conditions: tags: C-terminal His6; label: 5'-32P
Protocol: The 27 bp DNA oligonucleotides corresponding to SerRS binding site on the VEGFA promoter (5′ GGCGGGGCGGAGCCATGCGCCCCCCCC 3′ (SEQ ID NO: 36)) were synthesized, annealed, and [³²P]-labeled at the 5′ end by T4 DNA kinase (New England Biolabs, Ipswich, Mass., USA) before desalting using a sephadex G-25 spin column (GE Healthcare, Pittsburgh, Pa., USA). The labeled oligonucleotides (0.08 pmol) were incubated with recombinant SerRS at indicated concentrations in binding buffer (20 mM Tris-HCl, pH 8.0, 60 mM KCl, 5 mM MgCl₂, 0.1 mg ml⁻¹ BSA, 10 ng μl⁻¹ poly (dG-dC), 1 mM DTT) for 30 min at room temperature. The samples were loaded to 5% native polyacrylamide gel (17.5 cm in length) and underwent electrophoresis at 250 V in running buffer (25 mM Tris, pH 8.3, 190 mM glycine). Afterwards, the gel was dried and examined by autoradiography.
The effect of hypoxia on the interaction of SerRS with VEGFA promoter was also explored. As detected by electrophoresis mobility shift assay (EMSA), the direct binding between SerRS and a ³²P-labeled 27-bp DNA fragment previously identified as the SerRS binding site from the VEGFA promoter in Shi et al. 2014 was attenuated by the phosphor-mimicking mutant SerRS^{S101D/S241D} (FIG. 2E).

SerRS (seryl-tRNA synthetase) wild type, sequence (P49591 whole entry): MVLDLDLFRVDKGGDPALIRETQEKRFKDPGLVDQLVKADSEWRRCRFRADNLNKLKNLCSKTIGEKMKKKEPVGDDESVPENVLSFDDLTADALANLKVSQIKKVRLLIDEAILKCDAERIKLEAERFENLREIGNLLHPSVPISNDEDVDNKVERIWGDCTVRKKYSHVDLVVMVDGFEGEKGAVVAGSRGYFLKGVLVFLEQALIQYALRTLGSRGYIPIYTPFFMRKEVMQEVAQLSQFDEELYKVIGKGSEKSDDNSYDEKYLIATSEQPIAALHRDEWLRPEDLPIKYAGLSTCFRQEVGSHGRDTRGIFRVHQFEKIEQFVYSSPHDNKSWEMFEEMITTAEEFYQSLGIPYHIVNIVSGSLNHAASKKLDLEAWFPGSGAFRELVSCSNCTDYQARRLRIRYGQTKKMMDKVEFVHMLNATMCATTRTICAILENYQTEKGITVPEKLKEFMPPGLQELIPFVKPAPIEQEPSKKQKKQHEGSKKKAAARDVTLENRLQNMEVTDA

B1: VEGFA promoter 27-bp SerRS site (dsDNA)
DNA 1: GGCGGGGCGGAGCCATGCGCCCCCCCC
DNA 2: GGGGGGGGCGCATGGCTCCGCCCCGCC
  binding result: binds
